In PMC11984392, “EphA2-targeted alpha-particle theranostics for enhancing PDAC treatment” (Theranostics, 2025):
*1 amine or outer side, *2 acyl side, *3 side chain or, on linkers, in order; H or OH if unused. Bridges are numbered along the chain shown (N, C = ends). Primed or numbered codes have the meaning given here. [ ]: non-standard residue; d: D form. The star is where a group is joined. DOTA = O=C(O)CN1CCN(CC(=O)O)CCN(CC(=O)*)CCN(CC(=O)O)CC1; TATA = O=C(CC[*:1])N1CN(C(=O)CC[*:2])CN(C(=O)CC[*:3])C1; NOTA = O=C(O)CN1CCN(CC(=O)O)CCN(CC(=O)*)CC1; Hyp = O=C(O)[C@@H]1C[C@@H](O)CN1; hArg = N=C(N)NCCCC[C@H](N)C(=O)O; PEG2′ = not defined here; Sar = CNCC(=O)O

Assays:
Settings in all cases: both partners purified
His-tagged human EphA2 [1] = biological target: T1, His-tagged human EphA2 (human, UniProt P29317 24-537); assay: SPR; Biacore T200, CM5 chip, 25 °C; His-tagged human EphA2 captured on immobilised anti-His antibody (FC2); AJ210 as analyte, 0.625-80 nM, in HBS-P + 0.1% DMSO, 50 μL/min, contact 120 s, dissociation 600 s; 1:1 kinetics model
T1 construct: human EphA2 (Ephrin receptor A2), recombinant, 56.9 kDa; also called recombinant human EphA2 protein; hEphA2; source: bought: R&D systems, catalog # 3035-A2
T1 sequence (P29317 24-537): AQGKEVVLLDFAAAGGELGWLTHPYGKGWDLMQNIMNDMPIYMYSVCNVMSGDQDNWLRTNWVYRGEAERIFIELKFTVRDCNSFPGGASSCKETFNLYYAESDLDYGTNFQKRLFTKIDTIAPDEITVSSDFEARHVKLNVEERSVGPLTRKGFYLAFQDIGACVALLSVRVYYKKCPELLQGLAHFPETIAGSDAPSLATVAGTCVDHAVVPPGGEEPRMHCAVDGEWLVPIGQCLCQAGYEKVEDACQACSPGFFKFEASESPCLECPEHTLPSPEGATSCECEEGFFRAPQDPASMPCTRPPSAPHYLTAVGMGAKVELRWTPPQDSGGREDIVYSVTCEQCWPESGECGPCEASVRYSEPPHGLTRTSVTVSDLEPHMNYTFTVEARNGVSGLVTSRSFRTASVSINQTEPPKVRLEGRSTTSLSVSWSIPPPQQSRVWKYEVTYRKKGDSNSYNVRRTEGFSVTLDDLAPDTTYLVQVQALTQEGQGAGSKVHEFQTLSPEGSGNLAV

His-tagged human EphA2 [2] = biological target: T2, His-tagged human EphA2 (human, UniProt P29317 24-537); assay: SPR; Biacore T200, CM5 chip, 25 °C; His-tagged EphA2 captured (~750 RU) on amine-coupled anti-His antibody; peptide as analyte in HBS-P (10 mM HEPES pH 7.4, 150 mM NaCl, 0.05% P20) + 0.1% DMSO, 50 μL/min, contact 120 s, dissociation 600 s; 1:1 kinetics model
T2 construct: Human EphA2 (Ephrin receptor A2), recombinant, His-tagged, printed as 56.9 kDa; also called hEphA2; recombinant human EphA2; source: bought: R&D systems, catalog # 3035-A2
T2 sequence (P29317 24-537): as above

His-tagged mouse EphA2 = biological target: T3, His-tagged mouse EphA2 (mouse, UniProt Q03145 26-538); assay: as above
T3 construct: Mouse EphA2, recombinant, His-tagged, printed as 58 kDa; also called mEphA2; recombinant mouse EphA2; source: bought: SinoBiological, cat.# 50586-M08H
T3 sequence (Q03145 26-538): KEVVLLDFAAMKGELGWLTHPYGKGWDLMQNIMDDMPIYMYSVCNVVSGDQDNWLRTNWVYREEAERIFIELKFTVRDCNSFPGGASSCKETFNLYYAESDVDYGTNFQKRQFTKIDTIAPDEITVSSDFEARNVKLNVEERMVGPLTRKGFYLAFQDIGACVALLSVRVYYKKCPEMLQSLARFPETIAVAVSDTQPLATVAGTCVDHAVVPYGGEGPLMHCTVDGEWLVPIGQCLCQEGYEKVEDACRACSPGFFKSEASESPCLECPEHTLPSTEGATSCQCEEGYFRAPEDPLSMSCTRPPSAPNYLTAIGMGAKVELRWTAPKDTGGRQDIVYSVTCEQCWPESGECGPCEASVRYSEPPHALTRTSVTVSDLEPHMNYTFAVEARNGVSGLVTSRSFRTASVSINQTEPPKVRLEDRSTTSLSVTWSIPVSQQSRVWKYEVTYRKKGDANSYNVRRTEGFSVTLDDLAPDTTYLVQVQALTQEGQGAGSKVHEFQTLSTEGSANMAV

Binder | Kd (His-tagged human EphA2 [1]) [pM] | koff (His-tagged human EphA2 [1]) [s⁻¹] | kon (His-tagged human EphA2 [1]) [M⁻¹ s⁻¹] | Kd (His-tagged human EphA2 [2]) [pM] | Kd (His-tagged mouse EphA2) [pM]
{DOTA}-A[hArg]DC[Hyp]LVNPLCLHP[dD]W[hArg]C-NH2 (linker 4-11-18 via TATA; SMILES CC(C)C[C@@H]1NC(=O)[C@@H]2CSCCC(=O)N3CN(CN(C3)C(=O)CCSC[C@H](NC(=O)[C@H](CC(=O)O)NC(=O)[C@H](CCCCNC(=N)N)NC(=O)[C@H](C)NC(=O)CN3CCN(CC(=O)O)CCN(CC(=O)O)CCN(CC(=O)O)CC3)C(=O)N3C[C@H](O)C[C@H]3C(=O)N[C@@H](CC(C)C)C(=O)N[C@@H](C(C)C)C(=O)N[C@@H](CC(N)=O)C(=O)N3CCC[C@H]3C(=O)N[C@@H](CC(C)C)C(=O)N2)C(=O)CCSC[C@@H](C(N)=O)NC(=O)[C@H](CCCCNC(=N)N)NC(=O)[C@H](Cc2c[nH]c3ccccc23)NC(=O)[C@@H](CC(=O)O)NC(=O)[C@@H]2CCCN2C(=O)[C@H](Cc2c[nH]cn2)NC1=O) [AJ210] | 2400 | 0.00136 | 561000 | – | –
{NOTA-PEG2′}-GR[Sar][Sar][Sar]GA[hArg]DC[Hyp]LVNPLCLHP[dD]W[hArg]C-NH2 (linker 10-17-24 via TATA; not fully specified; also: hydroxyproline, place not given here, also called non-radioactive AJ201; bicyclic peptide AJ201; source: synthetic peptide, synthesized by CPC Scientific Inc., >90% purity) [AJ201] | – | – | – | 200 | 600
